From paper PMC12888920, “MMP-9 regulates disulphide isomerase activity of TGM2 to enhance fusion glycoprotein-mediated syncytium formation of respiratory syncytial virus” (Protein & Cell, 2025)

Key:
[1] = molecular target: purified human MMP-9 (human) (UniProt P14780); test: BLI; ForteBio Octet; who was immobilised and buffer not told in the text shown; three biological replicates
[2] = molecular target: DS-Cav1 (RSV F prefusion conformation) (respiratory syncytial virus (strain not stated)) (UniProt P03420); test: as above

purified human MMP-9 (human), sequence (P14780 20-707): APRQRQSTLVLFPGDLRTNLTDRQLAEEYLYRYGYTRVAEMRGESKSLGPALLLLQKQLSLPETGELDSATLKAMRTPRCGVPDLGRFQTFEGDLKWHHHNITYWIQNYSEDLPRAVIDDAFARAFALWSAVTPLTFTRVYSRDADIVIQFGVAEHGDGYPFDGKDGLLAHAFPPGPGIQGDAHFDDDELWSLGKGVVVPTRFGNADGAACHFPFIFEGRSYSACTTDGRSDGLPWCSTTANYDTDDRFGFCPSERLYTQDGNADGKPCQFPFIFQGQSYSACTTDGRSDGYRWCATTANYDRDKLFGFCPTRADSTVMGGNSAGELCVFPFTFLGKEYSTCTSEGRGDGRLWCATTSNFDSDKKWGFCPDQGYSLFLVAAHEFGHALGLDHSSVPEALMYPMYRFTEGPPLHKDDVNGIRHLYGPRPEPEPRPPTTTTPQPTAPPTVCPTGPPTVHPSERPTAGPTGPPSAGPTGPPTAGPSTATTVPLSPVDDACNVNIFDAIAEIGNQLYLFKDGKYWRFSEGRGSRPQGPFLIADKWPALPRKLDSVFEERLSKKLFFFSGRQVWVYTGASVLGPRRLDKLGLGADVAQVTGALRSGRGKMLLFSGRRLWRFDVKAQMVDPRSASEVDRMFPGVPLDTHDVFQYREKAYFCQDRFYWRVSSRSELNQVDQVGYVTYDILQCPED
purified human TGM2 (transglutaminase 2), sequence (P21980 whole entry): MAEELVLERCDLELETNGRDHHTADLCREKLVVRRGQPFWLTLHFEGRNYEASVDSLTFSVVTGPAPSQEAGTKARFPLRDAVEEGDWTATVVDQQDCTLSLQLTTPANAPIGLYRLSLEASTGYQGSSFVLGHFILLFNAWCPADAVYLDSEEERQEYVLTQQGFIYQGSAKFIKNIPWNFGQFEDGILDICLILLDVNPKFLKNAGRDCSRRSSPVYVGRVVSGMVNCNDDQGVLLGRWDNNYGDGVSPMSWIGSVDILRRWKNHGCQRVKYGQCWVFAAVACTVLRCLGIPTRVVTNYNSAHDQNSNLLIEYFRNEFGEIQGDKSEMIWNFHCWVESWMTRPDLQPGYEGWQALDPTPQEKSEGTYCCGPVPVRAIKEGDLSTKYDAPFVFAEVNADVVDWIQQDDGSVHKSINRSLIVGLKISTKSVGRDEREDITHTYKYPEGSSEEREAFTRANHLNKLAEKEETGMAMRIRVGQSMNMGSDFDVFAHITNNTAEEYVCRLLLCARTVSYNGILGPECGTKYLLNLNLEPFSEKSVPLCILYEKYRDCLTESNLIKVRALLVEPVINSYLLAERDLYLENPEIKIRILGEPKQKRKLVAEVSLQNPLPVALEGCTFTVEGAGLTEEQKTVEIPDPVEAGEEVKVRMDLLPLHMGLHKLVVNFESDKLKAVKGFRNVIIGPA

DS-Cav1 (RSV F prefusion conformation) (from UniProt P03420 26-574) (natural protein)
Kd [1]: 0.146 µM

purified human TGM2 (transglutaminase 2) (from UniProt P21980 1-687) (enzyme)
Kd [2]: 6.31 µM
